This passage reports SHP-2 recruitment, Ig-tethered test article, PD-1 reporter Jurkat cells; EC50 and SHP-2 recruitment, Ig-tethered test article, PD-1 reporter Jurkat cells; EC50 (second experiment) results from patent US20240301064A1.

This assay deals with PD-1 on PD-1 reporter Jurkat cells. In words: cell-based or functional assay.

In turn, CC-90006 (antibody) displayed an SHP-2 recruitment, Ig-tethered test article, PD-1 reporter Jurkat cells; EC50 of 2.94 nM and an SHP-2 recruitment, Ig-tethered test article, PD-1 reporter Jurkat cells; EC50 (second experiment) of 2.59 nM.
